# B1: ICSM-18 (antibody, V domains shown)
# VH: EVQLQQSGPELVKPGSSVKISCKASRNTFTDYNLDWVKQSHGKTLEWIGNVYPNNGVTGYNQKFRGKATLTVDKSSSTAYMELHSLTSEDSAVYYCALYYYDVSYWGQGTLVTVSS
# VL: QIVLTQSPAIMSASPGEKVTMTCSASSSVSYMHWYQQKSGTSPKRWIYDTSKLASGVPARFSGSGSGTSYSLTISSMEAEDAATYFCHQWRSNPYTFGGGTKLEIK
# Legend:
# [1] = molecular target: huPrP23-231 (human) (UniProt P04156); test: DELFIA
# [2] = molecular target: huPrP23-231 (Homo sapiens, UniProt P04156); test: DELFIA
Molecule,Kd [1],Kd [2],Ki [2]
Aβ-derived diffusible ligands (ADDLs) prepared from Aβ1-42 (from UniProt P05067) (peptide),0.1 µM,–,–
bADDLs prepared from biotinylated Aβ1-42 (bAβ1-42) (from UniProt P05067) (peptide),0.082 µM,–,–
B1,–,~0.01 µM,~0.02 µM

# From paper PMC3156817 (Nature Communications, 2011)
